Reference: patent US20180127498A1 (UCB, published 2018)
Several values for one entry are separate records, joined by “and”; a condition that tells them apart may be missing. Equal entries are not always repeated.

Assays:
[1] = biological target: T1, Human FcRn extracellular domain (non-covalent complex of human FcRn alpha chain extracellular domain and … (human, UniProt P55899 24-297; P61769 21-119); test: SPR Biacore T200, binder captured via anti-human F(ab')2, FcRn ECD as analyte, pH6; pH 6
T1 construct: also called hFcRn
Description: (§1) Biomolecular interaction analysis using surface plasmon resonance technology (SPR) was performed on a Biacore T200 system (GE Healthcare) and binding to human FcRn extracellular domain determined. Human FcRn extracellular domain was provided as a non-covalent complex between the human FcRn alpha chain extracellular domain (SEQ ID NO: 21) and β2 microglobulin (β2M) (SEQ ID NO: 23). Affinipure F(ab′)₂ fragment goat anti-human IgG, F(ab′)₂-specific (Jackson ImmunoResearch Lab, Inc.) at 50 μg/ml in 10 mM NaAc, pH 5 buffer was immobilized on a CMS Sensor Chip via amine coupling chemistry to a capture level between 4000-5000 response units (RU) using HBS-EP⁺(GE Healthcare) as the running buffer.
(§2) The antibody, 1735h5.hFab-scFv.768 was diluted to 0.25 μg/ml in running buffer and an injection 60 s at 10 μl/min was used for capture by the immobilized anti-human F(ab)₂. […] The surface was regenerated at 10 μl/min by 2×60 s 50 mM HCl for the running buffer at pH6 or by 60 s 40 mM HCl and 30 s 10 mM NaOH for the running buffer at pH7.4. The data was analysed using Biacore T200 evaluation software (version 1.0) using the 1:1 binding model with local Rmax.

[2] = biological target: T2, Cynomolgus monkey FcRn extracellular domain (non-covalent complex of Cynomolgus monkey FcRn alpha chain … (Cynomolgus monkey, UniProt Q8SPV9 24-297; Q8SPW0 21-119); test: SPR Biacore T200, binder captured via anti-human F(ab')2, cyno FcRn ECD as analyte, pH6; pH 6
T2 construct: also called non-human primate FcRn
Description: (§3) Biomolecular interaction analysis using surface plasmon resonance technology (SPR) was performed on a Biacore T200 system (GE Healthcare) and binding to Cynomolgus monkey FcRn extracellular domain determined. Cynomolgus monkey FcRn extracellular domain was provided as a non-covalent complex between the Cynomolgus monley FcRn alpha chain extracellular domain (SEQ ID NO: 17) and […] (β2M) (SEQ ID NO: 18). Affinipure F(ab′)₂ fragment goat anti-human IgG, F(ab′)₂-specific (Jackson ImmunoResearch Lab, Inc.) at 50 μg/ml in 10 mM NaAc, pH 5 buffer was immobilized on a CMS Sensor Chip via amine coupling chemistry to a capture level between 4000-5000 response units (RU) using HBS-EP⁺ (GE Healthcare) as the running buffer.
(§4) The antibody, 1735h5.hFab-scFv.768 diluted to0.5 μg/ml in running buffer and an injection of 60 s at 10 μl/min was used for capture by the immobilized anti-human F(ab′)₂. […] The surface was regenerated at 10 μl/min by 2×60 s 50 mM HCl for the running buffer at pH6 or by 60 s 40 mM HCl and 30 s 10 mM NaOH for the running buffer at pH7.4.
(§5) The data was analysed using Biacore T200 evaluation software (version 1.0) using the 1:1 binding model with local Rmax.

[3] = biological target: T2, Cynomolgus monkey FcRn extracellular …; test: SPR Biacore T200, binder captured via anti-human F(ab')2, cyno FcRn ECD as analyte, pH7.4; pH 7.4
Description: as §3, §4, §5

[4] = biological target: T1, Human FcRn extracellular domain …; test: SPR Biacore T200, binder captured via anti-human F(ab')2, FcRn ECD as analyte, pH6, average of 5; pH 6
Description: as §1, §2

[5] = biological target: T1, Human FcRn extracellular domain …; test: SPR Biacore T200, binder captured via anti-human F(ab')2, FcRn ECD as analyte, pH7.4, average of 5; pH 7.4
Description: as §1, §2

[6] = biological target: T2, Cynomolgus monkey FcRn extracellular …; test: SPR Biacore T200, binder captured via anti-human F(ab')2, cyno FcRn ECD as analyte, pH6, average of 5; pH 6
Description: as §3, §4, §5

[7] = biological target: T2, Cynomolgus monkey FcRn extracellular …; test: SPR Biacore T200, binder captured via anti-human F(ab')2, cyno FcRn ECD as analyte, pH7.4, average of 5; pH 7.4
Description: as §3, §4, §5

B1: 1735h5.hFab-scFv.768 (bispecific antibody)
heavy: EVQLVESGGGLVQPGGSLRLSCAASGFSLSTYGVGVGWVRQAPGKGLEWLANIWWDDDKRYNPSLENRFTISRDNAKNSAYLQMNSLRAEDTAVYYCARTPAYYGSHPPFDYWGQGTMVTVSSASTKGPSVFPLAPSSKSTSGGTAALGCLVKDYFPEPVTVSWNSGALTSGVHTFPAVLQSSGLYSLSSVVTVPSSSLGTQTYICNVNHKPSNTKVDKKVEPKSCSGGGGTGGGGSEVQLLESGGGLVQPGGSLRLSCAVSGIDLSNYAINWVRQAPGKCLEWIGIIWASGTTFYATWAKGRFTISRDNSKNTVYLQMNSLRAEDTAVYYCARTVPGYSTAPYFDLWGQGTLVTVSSGGGGSGGGGSGGGGSGGGGSDIQMTQSPSSVSASVGDRVTITCQSSPSVWSNFLSWYQQKPGKAPKLLIYEASKLTSGVPSRFSGSGSGTDFTLTISSLQPEDFATYYCGGGYSSISDTTFGCGTKVEIKRT
light: DIQMTQSPSSLSASVGDRVTITCRTSEDIYTNLAWYQQKPGKVPKLLIYVAKTLQEGVPSRFSGSGSGTHYTLTISSLQPEDVATYYCLQGFKFPWTFGGGTKVEIKRTVAAPSVFIFPPSDEQLKSGTASVVCLLNNFYPREAKVQWKVDNALQSGNSQESVTEQDSKDSTYSLSSTLTLSKADYEKHKVYACEVTHQGLSSPVTKSFNRGEC
notes: Anti-FcRn Fab (1638.g49 V-regions) fused at the C-terminus of CH1 to an anti-albumin disulphide stabilised scFv; expressed in CHO DG44; Monovalent for FcRn; also called Fab-dsscFv fusion protein comprising the 1638.g49 variable domains; anti-hFcRn 1735h5.hFab-scFv.768
kon [1]: 1.2e+06 M⁻¹ s⁻¹ and 1.1e+06 M⁻¹ s⁻¹ (3×)
kon [2]: 1.26e+06 M⁻¹ s⁻¹ and 1.24e+06 M⁻¹ s⁻¹
kon [3]: 1e+06 M⁻¹ s⁻¹ (2×) and 999000 M⁻¹ s⁻¹
Kd [4]: 0.16 nM
koff [4]: 0.000181 s⁻¹
kon [4]: 1.13e+06 M⁻¹ s⁻¹
Kd [5]: 0.0458 nM
koff [5]: 3.94e-05 s⁻¹
kon [5]: 861000 M⁻¹ s⁻¹
Kd [6]: 0.158 nM
koff [6]: 0.000197 s⁻¹
kon [6]: 1.25e+06 M⁻¹ s⁻¹
Kd [7]: 0.045 nM
koff [7]: 4.52e-05 s⁻¹
kon [7]: 1e+06 M⁻¹ s⁻¹
